Source: patent US20040253236A1

What was measured:
collagen type I = assay: cell-based or functional assay
[1] = molecular target: baboon platelet GPVI (baboon); assay: flow cytometry, washed baboon platelets (positive control)

Molecule | concentration of rhusGPVI:Fc needed to inhibit collagen-induced versus Cvx-induced platelet activation (collagen type I) | Baboon fluorescence intensity [1] | Baboon platelets % positive [1]
recombinant human soluble GPVI:Fc (rhusGPVI:Fc) (from UniProt Q9HCN6 21-269) (Fc fusion) | 10 fold |  | 
convulxin (Cvx), purified from the venom of Crotalus durissus terrificus (ligand) chain 1: GLHCPSDWYYYDQHCYRIFNEEMNWEDAEWFCTKQAKGAHLVSIKSAKEADFVAWMVTQNIEESFSHVSIGLRVQNKEKQCSTKWSDGSSVSYDNLLDLYITKCSLLKKETGFRKWFVASCIGKIPFVCKFPPQC chain 2: GFCCPSHWSSYDRYCYKVFKQEMTWADAEKFCTQQHTGSHLVSFHSTEEVDFVVKMTHQSLKSTFFWIGANNIWNKCNWQWSDGTKPEYKEWHEEFECLISRTFDNQWLSAPCSDTYSFVCKFEA |  | 72 | 95%
